# Reference: US20240026443A1 (University of Washington, published 2024)
# B1: double stranded DNA deaminase A immunity (DddAI) protein (other)
# chain: MYADDFDGEIEIDEVDSLVEFLSRRPAFDANNFVLTFEESGFPQLNIFAKNDIAVVYYMDIGENFVSKGNSASGGTEKFYENKLGGEVDLSKDCVVSKEQMIEAAKQFFATKQRPEQLTWSEL
# notes: Expressed inside P. aeruginosa from an arabinose-inducible promoter at the Tn7 attachment site; also called DddIA; DddA cognate immunity determinant
# Molecular target: T1, DddA (intact deaminase domain of the bacterial toxin-derived double stranded DNA cytosine deaminase) (Burkholderia cenocepacia (strain H111), UniProt P0DUH5 1290-1427, limits assumed)
# T1 construct: also called double stranded DNA deaminase
# T1 sequence: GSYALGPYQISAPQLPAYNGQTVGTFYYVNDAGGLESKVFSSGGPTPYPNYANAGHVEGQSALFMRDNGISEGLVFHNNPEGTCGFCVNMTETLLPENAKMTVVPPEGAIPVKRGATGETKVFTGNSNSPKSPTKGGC
# Assay: X-ray crystal structure of the complex
binder,measurement,value
B1,binding result,binds
